According to US20040126882A1, “Regulatable, catalytically active nucleic acids” (priority 2000, published 2004):
Where two headings read alike, the source gives them in different places.

Assays:
[1] = tested on: lysozyme-dependent clones; assay: Specificity of activation of lysozyme-dependent ribozymes by proteins; type: biochemical
Protocol: (§1) Protein inactivation. Standard ligation assays were performed as described above, but in the presence of protein samples that had been pre-treated as follows. Cyt18 protein was denatured by heating for 10 min at 70° C. or by the addition of 6% SDS (0.7% SDS in ligation reaction). Lysozyme was heated 10 min at 100° C. or incubated 10 min at room temperature in the presence of 2 mM DTT (0.3 mM DTT final reaction) without inactivating the protein. The protein was successfully inactivated by heating for […] at 70° C. in the presence of 2 mM DTT. Ligation reactions were performed with 1.3 μM protein in 15 μl reactions incubated 5 min at 25° C.

[2] = tested on: Cyt 18-dependent population; assay: Specificity of activation of Cyt18-dependent ribozymes by proteins; type: biochemical; conditions: Cyt18 denatured by heating or SDS
Protocol: as §1

[3] = target: group I self-splicing intron; conditions: cited from earlier work

B1: turkey lysozyme: extremely homologous (98%) turkey lysozyme (protein, UniProt P00703 19-147, looked up)
Lysozyme C: KVYGRCELAAAMKRLGLDNYRGYSLGNWVCAAKFESNFNTHATNRNTDGSTDYGILQINSRWWCNDGRTPGSKNLCNIPCSALLSSDITASVNCAKKIASGGNGMNAWVAWRNRCKGTDVHAWIRGCRL
activation of lysozyme-dependent ribozyme by other proteins [1]: cross-activation
activation of lysozyme-dependent ribozyme by other proteins ([1]; listed as turkey egg white lysozyme): activated

B2: lysozyme from human milk: lysozyme from human milk (protein, UniProt P61626 19-148, looked up)
Lysozyme C: KVFERCELARTLKRLGMDGYRGISLANWMCLAKWESGYNTRATNYNAGDRSTDYGIFQINSRYWCNDGKTPGAVNACHLSCSALLQDNIADAVACAKRVVRDPQGIRAWVAWRNRCQNRDVRQYVQGCGV
activation of lysozyme-dependent ribozyme by other proteins [1]: inactive

B3: Cyt18: tyrosyl tRNA synthetase from Neurospora mitochondria (protein, UniProt P12063 33-669, looked up)
Tyrosine--tRNA ligase, …: LRREFGPKYTAKINEAEENWQARAEAIKKGKKQNTWDLFEERGYVKDTAGTKEHIAELMRTRRIGAYVGIDPTAPSLHVGHLLPLMPLFWMYLEGYKAFTLIGGSTAKIGDPTGRLKSRDHLSSSDATMNMTKIHYQLKKLWENVDTQMRARGYEADWARKRGIVNNNHWWNKQPMLEVLRRVGHALRIGPMLSRDTVKNKMTQGDGVSFAEFTYPIMQGWDWFELFYQQGVQMQIGGSDQYGNIISGLEVVKAARESEPDPQERKYVTPKTALDECVGFTVPLLTDSSGAKFGKSAGNAIWLDPYQTSVFDFYGYFVRRSDQEVENLLKLFTFMPISEITKTMEEHIKDPSKRVAQHTLAREVVTLVHGKQEASAAEDQHRMMYTGQMTIPQVSRAKDAATGGDQYKTISDQPVTLNNAPRIDMILPESLIMGKSIGRILYAAGLASSTTEGHKLAAAQGCYVGGAHRAGGENVTMNPDLISFMPVKLWFPGETQRYLINGNLLILRKGKHNVRVIQMVSDVEYAASGQTYPGQSFTGAVRKLNEIMKNLKEKKLTPEEAKNAVNELQKSSQEKQQGQQIIFPEEKSRQKKDMETKLKQEMIASVKTIDGMMDEKPSVRGDGVKKQTQDDRDPYKW
activation of ribozyme catalysis by denatured Cyt18 [2]: unable to activate
activation of lysozyme-dependent ribozyme by other proteins [1]: inactive
Kd for group I self-splicing intron [3]: femptomolar range
